Results on 1 protein are retold here after ChEMBL document CHEMBL1156055, “Synthetic substrate for application in both high and low throughput assays for botulinum neurotoxin B protease inhibitors” (Bioorg Med Chem Lett, 2009).

Substrate in the data set: COc1ccc2c(CC(=O)NCCCC[C@H](NC(=O)CNC(=O)[C@H](C)NC(=O)[C@H](CCC(N)=O)NC(=O)[C@H](CC(C)C)NC(=O)[C@H](C)NC(=O)[C@H](CC(=O)O)NC(=O)[C@H](C)NC(=O)[C@H](CCCNC(=N)N)NC(=O)[C@H](CC(=O)O)NC(=O)[C@H](CC(=O)O)NC(=O)[C@H](CC(C)C)NC(=O)[C@H](CCC(=O)O)NC(=O)[C@H](CO)NC(=O)[C@H](CC(C)C)NC(=O)[C@H](CCCCN)NC(=O)[C@H](CCC(N)=O)NC(=O)[C@H](CC(=O)O)NC(=O)[C@H](CCCNC(=N)N)NC(=O)[C@H](CCC(=O)O)NC(C)=O)C(=O)N[C@@H](CO)C(=O)N[C@@H](CCC(N)=O)C(=O)N[C@@H](CNc3ccc([N+](=O)[O-])cc3[N+](=O)[O-])C(=O)N[C@@H](CCC(=O)O)C(=O)N[C@@H](CO)C(=O)N[C@@H](CO)C(=O)N[C@@H](C)C(=O)N[C@@H](C)C(=O)N[C@@H](CCCCN)C(=O)N[C@@H](CC(C)C)C(=O)N[C@@H](CCCCN)C(=O)N[C@@H](CCCNC(=N)N)C(=O)N[C@@H](CCCCN)C(=O)N[C@@H](Cc3ccc(O)cc3)C(=O)N[C@@H](Cc3c[nH]c4ccccc34)C(=O)N[C@@H](Cc3c[nH]c4ccccc34)C(=O)N[C@@H](CCCCN)C(=O)N[C@@H](CC(N)=O)C(=O)N[C@@H](CC(C)C)C(=O)N[C@@H](CCCCN)C(N)=O)cc(=O)oc2c1
In words: Activity at Clostridium botulinum BoNT/B protease.

B1: Botulinum neurotoxin type B (Clostridium botulinum), P10844 (protein)
chain: MPVTINNFNYNDPIDNNNIIMMEPPFARGTGRYYKAFKITDRIWIIPERYTFGYKPEDFNKSSGIFNRDVCEYYDPDYLNTNDKKNIFLQTMIKLFNRIKSKPLGEKLLEMIINGIPYLGDRRVPLEEFNTNIASVTVNKLISNPGEVERKKGIFANLIIFGPGPVLNENETIDIGIQNHFASREGFGGIMQMKFCPEYVSVFNNVQENKGASIFNRRGYFSDPALILMHELIHVLHGLYGIKVDDLPIVPNEKKFFMQSTDAIQAEELYTFGGQDPSIITPSTDKSIYDKVLQNFRGIVDRLNKVLVCISDPNININIYKNKFKDKYKFVEDSEGKYSIDVESFDKLYKSLMFGFTETNIAENYKIKTRASYFSDSLPPVKIKNLLDNEIYTIEEGFNISDKDMEKEYRGQNKAINKQAYEEISKEHLAVYKIQMCKSVKAPGICIDVDNEDLFFIADKNSFSDDLSKNERIEYNTQSNYIENDFPINELILDTDLISKIELPSENTESLTDFNVDVPVYEKQPAIKKIFTDENTIFQYLYSQTFPLDIRDISLTSSFDDALLFSNKVYSFFSMDYIKTANKVVEAGLFAGWVKQIVNDFVIEANKSNTMDKIADISLIVPYIGLALNVGNETAKGNFENAFEIAGASILLEFIPELLIPVVGAFLLESYIDNKNKIIKTIDNALTKRNEKWSDMYGLIVAQWLSTVNTQFYTIKEGMYKALNYQAQALEEIIKYRYNIYSEKEKSNINIDFNDINSKLNEGINQAIDNINNFINGCSVSYLMKKMIPLAVEKLLDFDNTLKKNLLNYIDENKLYLIGSAEYEKSKVNKYLKTIMPFDLSIYTNDTILIEMFNKYNSEILNNIILNLRYKDNNLIDLSGYGAKVEVYDGVELNDKNQFKLTSSANSKIRVTQNQNIIFNSVFLDFSVSFWIRIPKYKNDGIQNYIHNEYTIINCMKNNSGWKISIRGNRIIWTLIDINGKTKSVFFEYNIREDISEYINRWFFVTITNNLNNAKIYINGKLESNTDIKDIREVIANGEIIFKLDGDIDRTQFIWMKYFSIFNTELSQSNIEERYKIQSYSEYLKDFWGNPLMYNKEYYMFNAGNKNSYIKLKKDSPVGEILTRSKYNQNSKYINYRDLYIGEKFIIRRKSNSQSINDDIVRKEDYIYLDFFNLNQEWRVYTYKYFKKEEEKLFLAPISDSDEFYNTIQIKEYDEQPTYSCQLLFKKDEESTDEIGLIGIHRFYESGIVFEEYKDYFCISKWYLKEVKRKPYNLKLGCNWQFIPKDEGWTE
A word on the Km: it is the concentration of substrate that gives half-maximal velocity. Broadly, the kcat is the maximal rate divided by the concentration of active sites. As for B1, the Km came to 70.9 µM and the kcat turned out to be 3.81 s⁻¹.
